# PMC10949515 (Journal of Virology, 2024)
# Positions count from the first letter of the chain named.
# T1: human FLNB C-terminal fragment R23–24, His6-tagged (human, UniProt O75369 2379-2601)
# T1 construct: also called R23–R24; FLNB R23-24
# T1 sequence (looked up): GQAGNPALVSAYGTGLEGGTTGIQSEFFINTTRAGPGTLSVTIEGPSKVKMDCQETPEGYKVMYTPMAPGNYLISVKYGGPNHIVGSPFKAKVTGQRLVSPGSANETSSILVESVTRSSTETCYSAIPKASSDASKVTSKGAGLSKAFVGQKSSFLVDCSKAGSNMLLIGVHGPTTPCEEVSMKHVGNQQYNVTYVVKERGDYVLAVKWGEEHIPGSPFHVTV
# T2: FLNB R22–24 dimerization-deficient mutant (M2544E, L2546D), His6-tagged (human, UniProt O75369 2282-2601, M2544E | L2546D)
# T2 construct: also called mR22–R24; mR22–24
# T2 sequence (looked up): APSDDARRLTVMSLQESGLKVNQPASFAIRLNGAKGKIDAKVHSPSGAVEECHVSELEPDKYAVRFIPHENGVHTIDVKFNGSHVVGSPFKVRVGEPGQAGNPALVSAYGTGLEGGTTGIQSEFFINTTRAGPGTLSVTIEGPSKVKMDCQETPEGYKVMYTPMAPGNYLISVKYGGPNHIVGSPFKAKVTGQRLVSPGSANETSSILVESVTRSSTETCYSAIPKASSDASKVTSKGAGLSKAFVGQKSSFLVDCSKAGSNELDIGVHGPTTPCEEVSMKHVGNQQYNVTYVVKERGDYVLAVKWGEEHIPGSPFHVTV
# B1: human FLNB C-terminal fragment R22–24, His6-tagged (domain or fragment, UniProt O75369 2282-2601, looked up)
# chain: T2 sequence (looked up) with E263M, D265L
# notes: also called R22–R24; FLNB R22-24
# B2: C4 N-terminal residues 1–149, His6-tagged (domain or fragment)
# chain: MDTIKIFNHGEFDTIRNELVNLLKVVKWNTINSNVTVSSTDTIDISDCIREILYKQFKNVRNIEVSSDISFIKYNRFNDTTLTDDNVGYYLVIYLNRTKSVKTLIYPTPETVITSSEDIMFSKSLNFRFENVKRDYKLVMCSISLTYKP
# notes: also called C4-N 1–149
# Tests used:
# [1] = target: the molecule itself
# [2] = target: B1; assay: ITC; details: both partners purified
# [3] = target: T1, human FLNB C-terminal fragment R23–24, …; assay: ITC; details: both partners purified
# [4] = target: T2, FLNB R22–24 dimerization-deficient …; assay: SEC; details: both partners purified
binder,measurement,setting,value
B1,binding result,[1],binds
B2,Kd,[2],41.5 ± 30 nM
same,Kd,[3],< 1 nM
same,binding result,[4],binds
